Source: the nanobody polyreactivity screen of Harvey et al. (2022)

Assay: yeast display, Sf9 membrane polyspecificity reagent, FACS + sequencing; frameworks hold sequencing errors
Procedure, shortened: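 Nanobodies came from a synthetic yeast display library in Saccharomyces cerevisiae BJ5465, induced with galactose for 36–48 hours and stained for 1 hour at 4 °C with 10% biotinylated, detergent-solubilized Sf9 membrane reagent. Cells were enriched on streptavidin microbeads and then FACS-sorted, with low and high (top ~1%) gates set on anti-HA fluorescence for expression and streptavidin fluorescence for reagent binding. Each polyreactivity label reflects the gate a clone came from. Genes were amplified by colony PCR, sequenced by MiSeq 2 × 250 and filtered by CDR length.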

Sequence	polyreactivity (PSR sort gate)
QVQLVETGGGLVQAGGSLRLSSAASGIIFKTYAMGWYRQARGKERELLAGIDYSGGGTSYADSVKGRFTISRDNAKNTVYLQMNSLKPEDTAVYYCNAEWWSWGSDSYTYDYPETYDYRGQGTQVTVSS	low polyreactivity
QVQLVETGGGLVQAGGSLSLSCAASGRTFGRYAMGWYRQAPGKERELVAAITWSGGSTYYADSVKGRFTISRDNAKNTVYLQMNSLKPEDTAVYYCAASGYPIYHDDYWGQGTQVTVSS	low polyreactivity
QVQLVETGGGLVQAGGTLRLAVLPPDLPSTLNDMGWYRQATGKERELVAAITRGGSTNYADSVKGRFTISRDNAKNTVYLLMNSLKPEDTAVYYCAARSAGWRDGGDYWGQGTQVTVSS	low polyreactivity
QVQLVETGGGLVQAGGTLRLSCAPSGLIVDLYAMGCYRQAPGKERELVATISGSGGSTYYADSEKGRFTISRDNAKNTVYLQMNSLKPEDTAFYYCAAVSVSSWYDDCGQGTQVTVSS	low polyreactivity
QVQLVETGGGLVQAGGTLRLSCAPSGRIFPYNDMGLYRQAPGKERELVAANSSGGTTDYADSVKGRFTISRDNAKNTVYLQMNSLKPEDTAVYYCAATYVYWTWGYDYWGQGTQVTVSS	low polyreactivity
QVQLVETGGRLGQAGGSLRLSCAASGRTFGYNAMGWYRQAPGKERELVAAISWSGTRTYYADSVKWRFTISRDNAKNTVYLQRNSLKPEDTAVYYCAARIAVYGGSYGWFDYWGQGTQVTVSS	high polyreactivity
QVQLVETGGVLVQAGGSLRLSCAASGRIFPPNAMGWSRQAPGKEREFVASINRSGGRTYYADSVKGRFTISRDNAKNTVYLQMNSLKPEDTAVYYCAATGGYSCPLGVSWKYEYWGQGNQVTVSS	low polyreactivity
QVQLVETGGVLVQAGGSLRLSCAASGRTFRYNAMGWYRPAPGKEREFVAAITWGGGSTYYADSVKGRFTISRDNAKNTVYLQMNSLKPEDTAVYYCNADYIGNYQSIYQYDYWGQGTQVTVSS	low polyreactivity
QVQLVETGGVLVQAGGSLSLSCAASGSTFGWYVMGWYRQAPGKERELVAAITYSGDSTYYADSVKGRFTISRDNAKNTVYLQMNSLKPEDTAVYYCAADLSGYGKRYDYWGQGNQVTVSS	low polyreactivity
QVQLVETGVGLVQAGGILRLSCAASGSTFTNNGIGWYRQAPGKEREVVATNSWDGDSTYYAYSVKGRFSISRDTAKNTVYLQMNSLKPEDTAVYYCAADEWGSDSALNFEYWGQGTQVTVSS	low polyreactivity
QVQLVETRGGLVQAGGSLRLSCAASGSIFRTNVMGRYRQAPGKERELVAAISRRGGSTYYADSVKGRFTISRDNAKNTVYLQMITLKPEDTAVYYCAASSSAYRDDYWGQGTQVTVSS	high polyreactivity
QVQLVETRGGLVQAGGSLRLTCAASGRTFEGYAMGWYRQAPGKEREFVAAITDGDSTYYADSVKGRFTISRDNAKNTVYLQMNSLKPEDTAVYYCAADRQTWYWYTAYLKYDYWGQGSQVTVSS	low polyreactivity
QVQLVETRGGLVQAGGTLRLSCAASGYTVYRYAKGWYRQAPGKERELVAGISRDGGSTYYADSVKGRFTISRDNAKNTVYLQMNSLNPEDTAVYYCAADKTRYRLGRDYWGQGTQVTVSS	low polyreactivity
QVQLVETRGGLVQAGGTLRLSFAASGSTFSYYTMGWYRHAPGTERELVGSIDSSGGSTYYADSVKGRFTISRDNAQNTVYLQMNSLKPEDTAVYYCATGDEWGYDYWGQGTQVTVSS	low polyreactivity
QVQLVETVGGLVQAGFSLRLSCAASGFTYGAYAMGLYRQPPGKERELVAAITLRTGGSTYYADSVKGRFTISRDNAKYTVYLQMNSLKPEDTAVYYCAARVGLSPGGYGYWGQGTQVTVSS	high polyreactivity
QVQLVEYGGGLDQAGGSLRLSCAAYGLTFSPYAMGWYRQAPGKEMELVATITIGGSTKYADSVKGRVTISRDNAKNTVYLQMNSLKPEDTAVYYCAVRSGYVTRRYDYWGQGTQVTVSS	low polyreactivity
QVQLVGAGGGLVHAGGSLLLSCAASGFTLGSNAMGWYRQAPGKERALVAASSKSGGSTYYADSVKGRFTISRDNAKNTVYLQMTSLKPEDTAGYYCAARPIHYPPYYYWGQGTQVTVSS	high polyreactivity
QVQLVKSGGGLVQAGGSLRLSCAASGRIIDRNAMGWYRQAPGKERELVAAISSSGSTNYADSVKGRFTISRDNAKNTVYLQMNSLKPQDTAVYYCAARWRSVLAAGTRPVSFDYWGQGTQVTVSS	low polyreactivity
QVQLVKSGGGLVQAGGSLRLSCAASGRTFWGYAMGWYRQAPGKERELVAAISSGGDTTYADSVKGRCTISRDNAKNTVYLQMNSLKPEDTAVYYCAADRWIPVYILGADGYDYWGQGTHVTVSS	low polyreactivity
QVQLVKSGGGLVQAGGSLRLSCAASGSTFRYYVMGWYRQAPGKERELVATISRGGITKYADSVKGRFTSSRDNAKNTVYLQMHSLKPEDTAVYYCNTRGSRQGKFDYWGQGTQVTVSS	high polyreactivity
QVQLVQAGGGLVQAGGSLRLSSAPSGFTLYHYARGWYSQAPGKERQLVASITRSGASTYYPDSVKGRFTISRDNAKYTVYVQMNSLKPEDPAVYYCNKVRYTSSIWTYYDWGQGTQVTVSS	high polyreactivity
QVQLVQSGGCLVQAGGSLRLSCAASGSTFRYKAMGWYRQAPGKERELVATITGSGGSTYYADSVKGRFTISRDNAKNTVYLQMNSLKAEDTAVYYCNARYKRAAWRYDYWGQGTQVSVSS	high polyreactivity

Sequence	polyreactivity (PSR sort gate)
QVQLVQSGGCLVQAGGSLRLSCAASGSTIGDNAMGWYRQAPGKERELDAAIDYSGGSTRYADSVKGRFTISRDNAKNTVYLQMNSLKPEDTAVYYCAADYASGSRLFPKTLDYWGQGTQVTVSS	low polyreactivity
QVQLVQSGGGLFQAGGSLRLSCAPSGSIFDPNALGWYRQAPAKERELVAAISSGGSRKYSDSVKGRFTISRDNAKNTVYLQMNRLIPEDTAVYYCDASPRQGMYYWGQGTQVTVSS	high polyreactivity
QVQLVQSGGGLVKAGGSLRLRCAASGFTFVKYAMGCYRQAPGKERELIAVISRRGGSTYYADSVKGRFTISRDNAKNTVYLQMNSLKPEDSAVYYCAGVYYLYSAWRYDYWGLGTQVTVSS	high polyreactivity
QVQLVQSGGGLVQAGGRLSLSCAASGRTIDTYAMGWYRQAPGKERELVAAITRRTYYADSVKGRFTISRDNAKNSVYLQMNSLKPEDTAVDYCAVRFLRKWTSSRHYGYWGQGTQVTLSS	high polyreactivity
QVQLVQSGGGLVQAGGSHRLSCAASGFIFPVYAMGWYRQPPGKERELFASMTTGGSTNYADSVKGRFTITRDNAKNSVYLQMNSLKPEDTAVYDCNQDTPASLANQYNYGGQGTQVTVSS	low polyreactivity
QVQLVQSGGGLVQAGGSLRLSCAAMGWYRQAPGKERELVATITWSGGSTYYADSVKGRFTISRDNAKNTVYLQMNSLKPEDTAVYYCNARATLLSPANTILGYDYWGQGTQVTVSS	low polyreactivity
QVQLVQSGGGLVQAGGSLRLSCAASGITFWYYAMGWYRQAPGKERELVAAITGGSTYYADSVKGRFTISRDNAKNTVYLQMNSLKPEDTAVYYCNADSLFEYLDYDYWGQGTQVTVSS	low polyreactivity
QVQLVQSGGGLVQAGGSLRLSCAASGRIFRYYGMGWYRQAPGKERELVAAISWNSGSTYYADSVKGRFTISRDNAKNTVYLQMNSLKPEDTAVYYCNKVLFISGYVRNYGEYEYWGQGTQVTVSS	high polyreactivity
QVQLVQSGGGLVQAGGSLRLSCAASGRIFVNNAMGWYIQAPGKERELVAAISVSGTTTYYADSVKGRFTISRDNAKNTVYLQMNSLKPEDTAVFYCAAEGSTYQGAPGVYYWGQGTQVTVSS	high polyreactivity
QVQLVQSGGGLVQAGGSLRLSCAASGRTFGTYAMGWYRQAPGKEREFVAVITNRGGRTYYADSVKGRFTISRDNAKNTVYLQMNSLKPEDTAVYYCTAVGRGWAFDYWGQGTQVTVSS	high polyreactivity
QVQLVQSGGGLVQAGGSLRLSCAASGRTFYYNAMGWYRQAPGKERELVAAITSTGGSTYYADSVKGRFTISRDNAKNTVYLQMNSLKPEDTAVYYCNTLGYTQTRGLDYWGQGTQVTVSS	low polyreactivity
QVQLVQSGGGLVQAGGSLRLSCAASGSIFDYNTMGWYRQAPGKERELVATISWSGDSTYYADSVKGRFTISRDNAKNTVYLQMNSLKPEDTAVYYCNADDPPGAPYYDSFDYRGDYWGQGTQVTVSS	low polyreactivity
QVQLVQSGGGLVQAGGSLRLSCAASGSTFSQYVMGWYRQARGKERELVAAINKNGGRTYYADSVKGRFTISRDNAKNTVYFQMISLKPEDTAVYYCAADVYGQDDYWGQGTQVTVSS	high polyreactivity
QVQLVQSGGGLVQAGGSLRLSCAAYGSTFVRYVKGWYRQAPGKERELVAAISRRGGSTYYADSVKGRFRISRDNAKNTVFLQMNSLKPEDTAVSYCARTVGYRTLLESDSWGQGTQVTVSS	high polyreactivity
QVQLVQSGGGLVQAGGSLRLSCSASGRIFSAYAMGWYRPAPGKERELVAAITWSGANTDYADSVKGRFTMSRDNAKYTVYLQMNSLKPEDTAVYYCNASVGRDSAYDYWGQGTQVTVSS	low polyreactivity
QVQLVQSGGVLVQAGGSLRLSCAASGFIFNTYAMGWYRPAPGKERELVAAIDGRGGTTYYADSVKGRFTISRDYAKNTVYLQMHSLKPEDTAVYYCAARYQRLGIRYGYWGQGTQVTVSS	high polyreactivity
QVQLVQSGVGLDQAGGSLRLSCAASGSISSQNAMGWYRQAPGKESELVAAISWIGGSTYYADSVKGRFTISRDNAKNTVYLQMNSLKPEDTAVYYCAKDRASGFKYYYWGLGTQVTVSS	low polyreactivity
QVQLVQSGVGLVQAGGSLRLSCAASGSIFSYYVMGWYRQAPGKERELVAAISWSGGSTYYADSVKGRFTISRDNAKNTVYLQMNSLKPEDTAVYYCAAGTYPYYWVQGTQVTVSS	low polyreactivity
QVQLVQSRGGLVQAGGSLRLSCSASGFIFIYNVMGWYRQAPGKERDMVAAINRGGSTKYADSVKGRFTISRDNAKITVYLQMNSLKPEDSAVYYCAARYDGSRYHYDGYDYWGQGTQVTVSS	low polyreactivity
QVQLVQSVGGLVHAGGSLRLSCAASGRTYGVYAMGWYRQAPGKERELVAAITYSGGSTYYADSVKGRFTISRDNAKNTVYLQMNSLKPEDTAVYYCAAETRVGLYYVREVYYWGQGTQVTVSS	low polyreactivity
QVQLVVSGGGLVQAGGSLRISCAASGITFGRYAMGRYRPAPGKERELVAAISWSGGSTYYADSVKGRFTISRDNAKNTVFLQMNSLKPEDTAVYYCALEWYYTSYHIRFYRDNYWGQGTQVTVSS	high polyreactivity
